Common to all, as to format: binding
The target in one assay is T1, human EphA1 (Homo sapiens, UniProt P21709).
T1 construct: a protein of the extracellular region of each human Eph receptor fused with the SEAP protein and the His tag; made in house; host or cells: Expi293F cells (culture supernatant)
T1 sequence (P21709 26-547 limits assumed): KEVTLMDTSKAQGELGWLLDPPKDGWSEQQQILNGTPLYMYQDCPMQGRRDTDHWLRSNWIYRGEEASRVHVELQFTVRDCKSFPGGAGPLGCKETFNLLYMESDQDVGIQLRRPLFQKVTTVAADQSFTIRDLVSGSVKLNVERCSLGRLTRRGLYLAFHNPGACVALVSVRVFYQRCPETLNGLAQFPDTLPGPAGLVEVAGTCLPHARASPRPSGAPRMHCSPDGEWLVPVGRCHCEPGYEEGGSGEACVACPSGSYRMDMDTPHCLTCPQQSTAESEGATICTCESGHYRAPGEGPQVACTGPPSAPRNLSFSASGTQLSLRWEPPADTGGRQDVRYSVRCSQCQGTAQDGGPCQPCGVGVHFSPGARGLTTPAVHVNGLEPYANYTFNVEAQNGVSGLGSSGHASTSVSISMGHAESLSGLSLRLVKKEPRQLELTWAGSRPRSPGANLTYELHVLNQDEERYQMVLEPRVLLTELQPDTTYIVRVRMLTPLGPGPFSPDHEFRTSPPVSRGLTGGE
Description: Selectivity ELISA of humanized antibodies for human Eph receptor. The settings on record: coated protein 1 nM. The gist of the method: (§1)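 Steps: coat anti-His antibody; block, then 1% BlockAce overnight at 4 °C; add Eph receptor extracellular region-SEAP-His (1 nM final) 1 h; add humanized antibody 1 h; add HRP anti-IgG 1 h; develop TMB; stop with acid; read 450 nm.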
For orientation: An ELISA detects its analyte on a solid surface through an enzyme-linked reagent.

In assay [1] the target is T2, human EphA4 (Homo sapiens, UniProt P54764).
T2 construct: made in house; not restated for the human SEAP-His protein
T2 sequence (P54764 20-547): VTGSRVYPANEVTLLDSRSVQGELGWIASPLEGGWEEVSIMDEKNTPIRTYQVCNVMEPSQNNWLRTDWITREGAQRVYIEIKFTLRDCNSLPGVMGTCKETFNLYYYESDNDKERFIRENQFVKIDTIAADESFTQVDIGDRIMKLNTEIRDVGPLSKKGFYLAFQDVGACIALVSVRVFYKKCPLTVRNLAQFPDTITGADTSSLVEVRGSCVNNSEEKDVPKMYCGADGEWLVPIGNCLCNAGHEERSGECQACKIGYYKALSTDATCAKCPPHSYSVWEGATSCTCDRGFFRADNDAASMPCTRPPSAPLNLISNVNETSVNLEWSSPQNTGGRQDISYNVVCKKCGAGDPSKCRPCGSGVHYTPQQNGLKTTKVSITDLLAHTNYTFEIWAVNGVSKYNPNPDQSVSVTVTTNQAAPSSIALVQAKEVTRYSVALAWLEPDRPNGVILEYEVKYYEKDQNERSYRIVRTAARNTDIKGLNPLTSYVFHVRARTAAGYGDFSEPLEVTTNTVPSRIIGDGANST
The assay is described as above. Conditions: coated protein 1 nM; reference set to 100%. The gist of the method:
as §1

For assay [2], the target named is T2, human EphA4. Description: Affinity of humanized antibodies by SPR (Biacore T200). The settings on record: human EphA4 extracellular region-SEAP-His; for ka / kd: 1:1 binding model; for Kd: KD=kd/ka. As to the method: The binding affinity of each anti-EphA4 monoclonal humanized antibody obtained in Example 16 for human EphA4 was determined by surface plasmon resonance (SPR) using Biacore T200 (GE Healthcare). First, for the assay of antibody A, a rat anti-mouse IgG1 antibody produced with a conventional method by immunizing rat with mouse IgG1 antibody was immobilized on sensor chip CM5. The immobilization of the rat anti-mouse IgG1 antibody on sensor chip CM5 was performed by the amine coupling method using N-hydroxysuccinimide (NHS) and N-ethyl-N′-(3-dimethylaminopropyl)carbodiimide hydrochloride (EDC). Ethanolamine was used in blocking (the sensor chip and the reagents for immobilization were all manufactured by GE Healthcare). The antibody was diluted with a buffer solution for immobilization (10 mM sodium acetate, pH 4.5) and immobilized on the sensor chip according to the protocol attached to Biacore T200. For the assay of each humanized monoclonal antibody, a protein A chip (GE Healthcare, 29-1383-03) was used. Antibody A or the humanized monoclonal antibody was diluted with a running buffer solution HBS-EP (GE Healthcare), injected onto only flow cell 2 for 120 seconds, and captured (captured amount: approximately 30 to 60 RU). Subsequently, human EphA4 extracellular region-SEAP-His protein serially diluted in the range of 50, 16.7, 5.6, 1.9, and 0.6 nM using HBS-EP was sequentially added from the lower toward higher concentration sides without regeneration operation. Binding reaction curves were sequentially observed at the time of the addition (association phase, for 120 sec) and after the completion of the addition (dissociation phase, for 900 sec). After the completion of each observation, the sensor chip was regenerated by the addition of 3 M MgCl2 (for 60 sec) or 10 mM Glycine-HCl pH 1.5 (for 30 sec). The obtained binding reaction curves were subjected to fitting analysis with 1:1 binding models using software BIA evaluation attached to the system to calculate the affinity (KD=kd/ka) for human EphA4 (Table 6).

What is called Kd is the constant that tells how readily two partners part at equilibrium.

B1: 87 (antibody, V domains shown)
VL: DIQMTQSPSSLSASVGDRVTITCRASENIYRNLAWYQQKPGKAPQLLLYAATNLADGVPSRFSGSGSGTDYTLTISSLQPEDFATYYCQHFWGTPWTFGQGTKVEIK
VH: QVQLVQSGSELKKPGASVKVSCKASGYTFTDYSMHWVRQAPGQGLEWMGWINTETGEPTYAQGFTGRFVFSLDTSVSTAYLQISSLKAEDTAVYYCARIPLYYYGSRYWYFDVWGQGTTVTVSS
modifications: constant regions without entry; synthetic humanized antibody light chain variable region sequence; synthetic humanized antibody heavy chain variable region sequence
For B1, in the assay with human EphA1, the “hEphA1-SEAP-: absorbance at 450 nm, percentage with respect to hEphA4-SEAP-His as 100%” value turned out to be 5.3%. In addition, the “hEphA4-SEAP-: absorbance at 450 nm, percentage with respect to hEphA4-SEAP-His as 100%” value with human EphA4 [1] was found to be 100%. Also, in the assay with human EphA4 [2], the ka is 350000 M⁻¹ s⁻¹, the kd was 0.00051 s⁻¹ and the dissociation constant (Kd) was 1.5 nM.

B2: 90 (antibody, V domains shown)
VL: DIQMTQSPSSLSASVGDRVTITCRASENIYRNLAWYQQKPGKAPQLLLYAATNLADGVPSRFSGSGSGTDYTLTISSLQPEDFATYYCQHFWGTPWTFGQGTKVEIK
VH: QVQLVQSGSELKKPGASVKVSCKASGYTFTDYSMHWVRQAPGQGLEWMGWINTETGEPTYADDFKGRFVFSLDTSVSTAYLQISSLKAEDTAVYYCARIPLYYYGSRYWYFDVWGQGTTVTVSS
modifications: constant regions without entry; synthetic humanized antibody light chain variable region sequence; synthetic humanized antibody heavy chain variable region sequence
B2: the “hEphA1-SEAP-: absorbance at 450 nm, percentage with respect to hEphA4-SEAP-His as 100%” value in the assay with human EphA1 came out at 5.1%. Further, the “hEphA4-SEAP-: absorbance at 450 nm, percentage with respect to hEphA4-SEAP-His as 100%” value with human EphA4 [1] stood at 100%. Besides, in the assay with human EphA4 [2], the ka worked out at 360000 M⁻¹ s⁻¹, the kd stood at 0.00055 s⁻¹ and binding was put at a Kd of 1.5 nM.

B3: 88 (antibody, V domains shown)
VL: DIQMTQSPSSLSASVGDRVTITCRASENIYRNLAWYQQKPGKAPQLLLYAATNLADGVPSRFSGSGSGTDYTLTISSLQPEDFATYYCQHFWGTPWTFGQGTKVEIK
VH: QVQLVQSGSELKKPGASVKVSCKASGYTFTDYSMHWVRQAPGQGLKWMGWINTETGEPTYAQGFTGRFVFSLDTSVSTAYLQISSLKAEDTAVYYCARIPLYYYGSRYWYFDVWGQGTTVTVSS
modifications: constant regions without entry; synthetic humanized antibody light chain variable region sequence; synthetic humanized antibody heavy chain variable region sequence
In the case of B3, the “hEphA1-SEAP-: absorbance at 450 nm, percentage with respect to hEphA4-SEAP-His as 100%” value with human EphA1 is given as 5.8%. Besides, the “hEphA4-SEAP-: absorbance at 450 nm, percentage with respect to hEphA4-SEAP-His as 100%” value with human EphA4 [1] was found to be 100%. In the assay with human EphA4 [2], this molecule returned a ka of 300000 M⁻¹ s⁻¹, a kd of 0.00042 s⁻¹ and a Kd of 1.4 nM.

B4: 93 (antibody, V domains shown)
VL: EIVMTQSPATLSVSPGERATLSCRASENIYRNLAWYQQKPGQSPRLLIYAATNLADGIPARFSGSGSGTEYTLTISSLQSEDFAVYYCQHFWGTPWTFGQGTKVEIK
VH: QVQLVQSGSELKKPGASVKVSCKASGYTFTDYSMHWVRQAPGQGLEWMGWINTETGEPTYAQGFTGRFVFSLDTSVSTAYLQISSLKAEDTAVYYCARIPLYYYGSRYWYFDVWGQGTTVTVSS
modifications: constant regions without entry; synthetic humanized antibody light chain variable region sequence; synthetic humanized antibody heavy chain variable region sequence
Regarding B4, the “hEphA1-SEAP-: absorbance at 450 nm, percentage with respect to hEphA4-SEAP-His as 100%” value in the assay with human EphA1 is listed as 5.0%. Besides, the “hEphA4-SEAP-: absorbance at 450 nm, percentage with respect to hEphA4-SEAP-His as 100%” value with human EphA4 [1] stood at 100%. In the assay with human EphA4 [2], this molecule had a ka of 310000 M⁻¹ s⁻¹, a kd of 0.00024 s⁻¹ and a Kd of 0.77 nM.

B5: 92 (antibody, V domains shown)
VL: DIQMTQSPSSLSASVGDRVTITCRASENIYRNLAWYQQKPGKAPQLLLYAATNLADGVPSRFSGSGSGTDYTLTISSLQPEDFATYYCQHFWGTPWTFGQGTKVEIK
VH: QIQLVQSGSELKKPGASVKVSCKASGYTFTDYSMHWVRQAPGQGLKWMGWINTETGEPTYADDFKGRFVFSLDTSVSTAYLQISSLKAEDTAVYYCARIPLYYYGSRYWYFDVWGQGTTVTVSS
modifications: constant regions without entry; synthetic humanized antibody light chain variable region sequence; synthetic humanized antibody heavy chain variable region sequence
Turning to B5, the “hEphA1-SEAP-: absorbance at 450 nm, percentage with respect to hEphA4-SEAP-His as 100%” value with human EphA1 came to 7.0%. Besides, in the assay with human EphA4 [1], the “hEphA4-SEAP-: absorbance at 450 nm, percentage with respect to hEphA4-SEAP-His as 100%” value is reported as 100%. In the assay with human EphA4 [2], the ka was 330000 M⁻¹ s⁻¹, the kd came to 0.00043 s⁻¹ and binding was characterised by a dissociation constant (Kd) of 1.3 nM.

B6: 91 (antibody, V domains shown)
VL: DIQMTQSPSSLSASVGDRVTITCRASENIYRNLAWYQQKPGKAPQLLLYAATNLADGVPSRFSGSGSGTDYTLTISSLQPEDFATYYCQHFWGTPWTFGQGTKVEIK
VH: QVQLVQSGSELKKPGASVKVSCKASGYTFTDYSMHWVRQAPGQGLKWMGWINTETGEPTYADDFKGRFVFSLDTSVSTAYLQISSLKAEDTAVYYCARIPLYYYGSRYWYFDVWGQGTTVTVSS
modifications: constant regions without entry; synthetic humanized antibody light chain variable region sequence; synthetic humanized antibody heavy chain variable region sequence
Take B6: the “hEphA1-SEAP-: absorbance at 450 nm, percentage with respect to hEphA4-SEAP-His as 100%” value with human EphA1 was 5.8%. Moreover, in the assay with human EphA4 [1], the “hEphA4-SEAP-: absorbance at 450 nm, percentage with respect to hEphA4-SEAP-His as 100%” value stood at 100%. In the assay with human EphA4 [2], this molecule yielded a ka of 330000 M⁻¹ s⁻¹, a kd of 0.00044 s⁻¹ and a Kd of 1.3 nM.

B7: 89 (antibody, V domains shown)
VL: DIQMTQSPSSLSASVGDRVTITCRASENIYRNLAWYQQKPGKAPQLLLYAATNLADGVPSRFSGSGSGTDYTLTISSLQPEDFATYYCQHFWGTPWTFGQGTKVEIK
VH: QIQLVQSGSELKKPGASVKVSCKASGYTFTDYSMHWVRQAPGQGLKWMGWINTETGEPTYAQGFTGRFVFSLDTSVSTAYLQISSLKAEDTAVYYCARIPLYYYGSRYWYFDVWGQGTTVTVSS
modifications: constant regions without entry; synthetic humanized antibody light chain variable region sequence; synthetic humanized antibody heavy chain variable region sequence
With B7, the “hEphA1-SEAP-: absorbance at 450 nm, percentage with respect to hEphA4-SEAP-His as 100%” value with human EphA1 amounted to 5.5%. The “hEphA4-SEAP-: absorbance at 450 nm, percentage with respect to hEphA4-SEAP-His as 100%” value in the assay with human EphA4 [1] is reported as 100%. In addition, in the assay with human EphA4 [2], the ka was 310000 M⁻¹ s⁻¹, the kd was 0.00041 s⁻¹ and the dissociation constant Kd was 1.3 nM.

These data come from patent US10428140B2, “Anti-EphA4 antibody” (EISAI R&D MANAGEMENT CO., LTD., priority 2015, dated 2019).
